According to patent publication US20260243766A1 (published 2026):

Molecular target: R6A/Q72R
Assay: SPR

B1: 10LH (scFv)
scFv: SRNGGDGQSVLTQPPSVSVSPGQTASITCSGDSLGNKYACWYQQKPGQSPVLVIYQDSKRPSGIPERFSGSNSGNTATLTISGTQAMDEADYYCQAWDSSRGYTVVFGTGTKVTVSSQTGGSGGGGSGGGGSGGGGSEVQLLESGGGLVQPGGSLRLSCAASGFTFDSYAMSWVRQAPGKGLEWVSAISGYGGSTYYADSVKGRFTISRDNSKNTLYLQMNSLRAEDTAVYYCAKYTYFLDAFDIWGQGTMVTVSSS
- Kd: 18.8 µM
